One block for each molecule: values may come before it.
Legend:
[1] = biological target: Mouse NRP1 (Recombinant Mouse Neuropilin-1 Protein, CF) (mouse) (UniProt P97333); assay: SPR; Pioneer SensiQ; mouse NRP1 immobilised on a Polycarboxylate High Capacity (PCH) chip in 10 mM sodium acetate pH 5.0 (2307 RU for mouse SEMA3A Fc, 1565 RU for human SEMA3A Fc); SEMA3A-Fc flowed over; running buffer 20 mM HEPES pH 7.5, 150 mM NaCl, 0.005% Tween-20; OneStep kinetics, single concentration (100 nM mouse or 50 nM human SEMA3A Fc), 75 ul/min
[2] = biological target: T1, Mouse NRP1 (Recombinant Mouse Neuropilin-1 Protein, CF) (mouse, UniProt P97333 22-856); assay: as above; conditions: both partners purified
T1 construct: Neuropilin-1, mouse, recombinant soluble protein; also called murine NRP1; mouse NRP1 receptor; source: bought: R&D Systems
T1 sequence (looked up): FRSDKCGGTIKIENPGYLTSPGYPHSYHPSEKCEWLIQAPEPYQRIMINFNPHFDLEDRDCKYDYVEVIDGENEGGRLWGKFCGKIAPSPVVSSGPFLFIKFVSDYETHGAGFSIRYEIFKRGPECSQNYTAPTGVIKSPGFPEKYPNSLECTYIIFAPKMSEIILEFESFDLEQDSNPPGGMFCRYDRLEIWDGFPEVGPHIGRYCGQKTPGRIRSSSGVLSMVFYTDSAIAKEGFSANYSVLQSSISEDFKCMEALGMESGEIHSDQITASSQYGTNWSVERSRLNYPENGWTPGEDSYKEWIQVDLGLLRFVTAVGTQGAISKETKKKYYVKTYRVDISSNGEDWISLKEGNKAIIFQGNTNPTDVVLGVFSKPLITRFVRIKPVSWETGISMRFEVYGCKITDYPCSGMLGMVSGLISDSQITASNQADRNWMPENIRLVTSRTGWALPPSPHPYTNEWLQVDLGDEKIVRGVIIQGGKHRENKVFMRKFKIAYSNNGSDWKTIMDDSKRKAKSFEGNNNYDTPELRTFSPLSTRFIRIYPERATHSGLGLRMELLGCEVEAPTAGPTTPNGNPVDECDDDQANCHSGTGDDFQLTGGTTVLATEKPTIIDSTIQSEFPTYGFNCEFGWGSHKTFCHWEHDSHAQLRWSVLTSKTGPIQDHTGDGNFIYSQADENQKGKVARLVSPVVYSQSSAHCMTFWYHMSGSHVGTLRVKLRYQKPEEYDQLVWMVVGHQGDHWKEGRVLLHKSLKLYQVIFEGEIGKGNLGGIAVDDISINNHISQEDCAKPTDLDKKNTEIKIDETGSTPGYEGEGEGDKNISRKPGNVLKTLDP

Kd [1]: 1.8 nM
Molecule: recombinant human full length SEMA3A Fc (huSEMA3A, Lys26-Val771) (from UniProt Q14563 26-771) (Fc fusion)

Kd [2]: ~4.4 nM
B1: recombinant mouse SEMA3A Fc (muSEMA3A, Asn21-Lys747) (Fc fusion, UniProt O08665 21-747, looked up)
chain: NYANGKNNVPRLKLSYKEMLESNNVITFNGLANSSSYHTFLLDEERSRLYVGAKDHIFSFNLVNIKDFQKIVWPVSYTRRDECKWAGKDILKECANFIKVLEAYNQTHLYACGTGAFHPICTYIEVGHHPEDNIFKLQDSHFENGRGKSPYDPKLLTASLLIDGELYSGTAADFMGRDFAIFRTLGHHHPIRTEQHDSRWLNDPRFISAHLIPESDNPEDDKVYFFFRENAIDGEHSGKATHARIGQICKNDFGGHRSLVNKWTTFLKARLICSVPGPNGIDTHFDELQDVFLMNSKDPKNPIVYGVFTTSSNIFKGSAVCMYSMSDVRRVFLGPYAHRDGPNYQWVPYQGRVPYPRPGTCPSKTFGGFDSTKDLPDDVITFARSHPAMYNPVFPINNRPIMIKTDVNYQFTQIVVDRVDAEDGQYDVMFIGTDVGTVLKVVSVPKETWHDLEEILLEEMTVFREPTTISAMELSTKQQQLYIGSTAGVAQLPLHRCDIYGKACAECCLARDPYCAWDGSSCSRYFPTAKRRTRRQDIRNGDPLTHCSDLQHHDNHHGPSLEERIIYGVENSSTFLECSPKSQRALVYWQFQRRNEDRKEEIRMGDHIIRTEQGLLLRSLQKKDSGNYLCHAVEHGFMQTLLKVTLEVIDTEHLEELLHKDDDGDGSKIKEMSSSMTPSQKVWYRDFMQLINHPNLNTMDEFCEQVWKRDRKQRRQRPGHSQGSSNK
notes: Semaphorin 3A, mouse, Asn21-Lys747, truncated at the C-terminus (lacks the RNRR and RAPR stretches); also called Murine SEMA3A Fc; truncated murine SEMA3A; source: bought: R&D Systems

— article PMC8635308, “Neuropilin 1 regulates bone marrow vascular regeneration and hematopoietic reconstitution” (Nature Communications, 2021)
